Experiment: yeast display, Sf9 membrane polyspecificity reagent, FACS + sequencing; frameworks hold sequencing errors
Outline: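 In a synthetic yeast display library (Saccharomyces cerevisiae BJ5465), nanobody expression was induced with galactose for 36–48 hours. FACS gates were set low and high (top ~1%) using anti-HA fluorescence for expression and streptavidin fluorescence for binding of the Sf9 membrane reagent. Each polyreactivity label is drawn from the gate of origin.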

Sequence: QVQLVESGGGLVQAGGSLRLSCAASGFTFRYNAMGWYRQAPGKERELVAAITWRGGRTYYADSVKGRFTISRDNAKNTVYLQMNSLKPEDTAVYYCAVYRTSTRYVVDSDYWGQGTQVTVSS
- polyreactivity (PSR sort gate): low polyreactivity

Sequence: QVQLVESGGVLVQAGGRLRISCAASGSTFVRNAMGWYRQAPGKEMELVAAISFSGGSTYYADSVKGRFTISRDTAKNTVYLQMNSLKPEDTAVYYCAKKTRYRSRGMNYWGQATQVTVSS
- polyreactivity (PSR sort gate): high polyreactivity

Sequence: QVQLVESGGGLVQAGGSLRLSCAASGSIFILNAMGWYRQAPGKERELVAAISSSGGSTYYADSVMGRFTISRDNAKYTDYLQMNSLKPEDSAVYYCAAERNYYFLFPYDSWGQGTQVTVSS
- polyreactivity (PSR sort gate): high polyreactivity

Sequence: QVQLVESGGGLVQAGGSLRLSCAASGSIFATYAMGWYRQAPGKERELGAAISRSGGSTYYADSVKGRFTISRDNAKNTVYLQMNSLKPEDTAVYYCAAVRGYGWWWSRWGSREYWGQGTQVTVSS
- polyreactivity (PSR sort gate): high polyreactivity

Sequence: QVQLVESGGGLVQAGGSLRLSCAAYGRTFGLNAMGWYRQAPGKERELVAAISSSGGSTYYADSVKGRFTISRDNAKNTVYLQMNSLKPEDTAVYYCARVPLHRYGYWGQGTQVNVSS
- polyreactivity (PSR sort gate): high polyreactivity

Sequence: QVQLVESGGGLVQAGGTLRLSCAASGSIVQSYAMGWYRQAPGKERELVAAITERGGSTYYADSVKGRFTISRDNAKNTVYLQMNSLKPEDTAVYYCAAKAVGLGKSWRGDDYWGQGTQVTVSS
- polyreactivity (PSR sort gate): low polyreactivity

Sequence: QVQLVESGGGLVQAGGSLRLSCAASGRIFLTNAMGWYRQAHGKERELVADISRGGSTYADSVKGRFTISRDNAKNTVYLQMNSLKPEDTAVYYCAADEYSPGDSRTRYDYWGQGTQVTVSS
- polyreactivity (PSR sort gate): low polyreactivity

Sequence: QVQLVESGGGLVQAGGSLRLSCAASGSIFAPYAMGWTRQAPGKERELVASISVRSGSTHYADSVKGRFTISRDNAKNTVYLQMNCLNPEDTAVYYCNARTYDYSWVWESRWWYYYWGQGTQVTVSS
- polyreactivity (PSR sort gate): high polyreactivity

Sequence: QVQLVESGGGLVQAGGSLRLSCAASGFTFDYNTMGWYRQAPGKEIELVAGISRGGGSTYYADSVKGRFTISRDNAKNTVYLQMNSLKPEVTAVYYCNTVLKRQRKNEYWGQGTQVTVSS
- polyreactivity (PSR sort gate): high polyreactivity

Sequence: QVQLVESGGGLVQAGGSLRLSCAASGFTFYIYGMGWYRPAPGKERELVAAITWSGGRTYYADSVKGRFTISRDNAKNTVYLHMNSLKPEDTAVYYCAASYPGLSYHKYEYWGHGTQVTVSS
- polyreactivity (PSR sort gate): high polyreactivity

Sequence: QVQLVESGGGLVQAGVSLRLRCASSGSIFRRNVMGWYRQAPGKERELVAAISWSGGRTYYADSVKGRFTISRDNAKNTVYLQMNSLKPEDTAVYYCAAENGYYAYDYWGQGTQVTVSS
- polyreactivity (PSR sort gate): high polyreactivity

Sequence: QVQLVESGGGLVQAGGSLRLSCSASGFIFRYNAMGWYRQAPGKEREFVAAISQGGASTYYADSVKGRFTISRDNAKNTVYLQMNSLKPEDTAVYYCNAVVDTSKYTDYYWGQGTQVTVSS
- polyreactivity (PSR sort gate): low polyreactivity

Sequence: QVQLVESGGGIVQAGGSLRLSCAASGSIFRWNAMGWYRQAPGKESELVAAIRWSSGSTYYADSVKGRFTISRDNAKNTVYLQMNSLKPEDTAVYYCAASRATIKYPKREYWGQGTQVTVSS
- polyreactivity (PSR sort gate): high polyreactivity

Sequence: QVQLVESGGGLVQAGGSLRLSCAASGRIFYVNGMGWYRQAPGNERELVAAIRISGGRTYYADSVKGRFTISRDYAKYTVYFQMNSLKPEDTAVYFCAKRYYYPYAGYDYWGQGTQVTVSS
- polyreactivity (PSR sort gate): high polyreactivity

Sequence: QVQLVESGGGLVQAGGSLRLSCAASGSISQKYVMGWYRKAPGKERELVAAIRSTGNTYYADSVKGRFTISRDNAKNTVYLQMNSLKPEDTAVYYCAARLYVLRWYPYDYWGQGTQVTVSS
- polyreactivity (PSR sort gate): low polyreactivity

Sequence: QVQLVESGGGLVQAGGSLRLSCAASGSIFVSNAMGWYRQAPGKEREMVAAISQSGGSTYYADSVKGLFTISRDNAKNTVYLQMNSLKPEDTEVYYCATPIRSGFRIYEYWGQGTQVTVSS
- polyreactivity (PSR sort gate): low polyreactivity

Sequence: QVQLVESGGGLVHAGGSLRLSSAASGRTFKVYAMGWYRQAPGKERELVAAITGGGSTNYADSVKGRFTISRDNAKNTVYLQMYSLKPEDTAVYYCNARYYYRLVKWSRFSSYDYWGQGTQVTVSS
- polyreactivity (PSR sort gate): low polyreactivity

Reference: the nanobody polyreactivity screen of Harvey et al. (2022)
